The supplement of paper PMC7877785
± gives the uncertainty stated by the source.

Test: self-splicing fitness, log relative to wild type (ln ratio); higher = more splicing; Tetrahymena group I intron in knt gene, E. coli kanamycin selection, DiMSum; sequences stand for … in CUCUCU…GGAGGGAAAAGUUAUCAGGCAUGCACCUGGUAGCUAGUCUUUAAACCAAUAGAUUGCAUCGGUUUAAAAGGCAAGACCGUCAAAUUGCGGGAAAGGGGUCAACAGCCGUUCAGUACCAAGUCUCAGGGGAAACUUUGAGAUGGCCUUGCAAAGGGUAUGGUAAUAAGCUGACGGACAUGGUCCUAACCACGCAGCCAAGUCCUAAGUCAACAGAUCUUCUGUUGAUAUGGAUGCAGUUCACAGACUAAAUGUCGGUCGGGGAAGAUGUAUUCUUCUCAUAAGAUAUAGUCGGACCUCUCCUUAAUGGGAGCUAGCGGAUGAAGUGAUGCAACACUGGAGCCGCUGGGAACUAAUUUGUAUGCGAAAGUAUAUUGAUUAGUUUUGGAGUACUCGUGGUCG
Procedure, shortened: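 Library with all eight P1ex-region intron nucleotides randomised, intron inside the knt kanamycin-resistance gene on pET-22b(+), in E. coli BL21(DE3). Cells grew overnight at 37°C or 30°C on LB agar with or without 25 μg/mL kanamycin (plus 100 μg/mL carbenicillin, 50 μM IPTG, 0.2% rhamnose), in six replicate transformations. Pooled colonies were amplicon-sequenced on Illumina HiSeq 2500. DiMSum fitness is the error-weighted combination of wild-type-normalised replicate fold changes, kanamycin versus none.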

Sequence	self-splicing fitness (ln) (30 °C)	self-splicing fitness (ln) (37 °C)
UGCCAGCAAUAUUACGGAUU	-1.67 ± 0.068	-0.242 ± 0.074
UGCCAGCAAUAUUACGGCGG	-3.73 ± 0.18	-1.48 ± 0.13
UGCCAGCAAUAUUACGGGAA	-1.37 ± 0.092	-0.333 ± 0.1
UGCCAGCAAUAUUACGGGUU	-2.46 ± 0.13	-2.34 ± 0.12
UGCCAGCAAUAUUACGGUGA	-0.97 ± 0.075	0.0352 ± 0.092
UGCCAGCAAUAUUACGGUGG	-3.29 ± 0.13	-2.97 ± 0.21
UGCCAGCAAUAUUACGUAAA	-1.24 ± 0.093	-0.956 ± 0.12
UGCCAGCAAUAUUACGUAGU	-3.91 ± 0.21	-1.87 ± 0.13
UGCCAGCAAUAUUACGUAUA	-1.92 ± 0.11	-1.62 ± 0.12
UGCCAGCAAUAUUACGUCAC		-2.01 ± 0.29
UGCCAGCAAUAUUACGUCAG	-2.49 ± 0.11	-1.53 ± 0.14
UGCCAGCAAUAUUACGUCGC	-3.68 ± 0.44	-2.95 ± 0.35
UGCCAGCAAUAUUACGUCUC	-4.62 ± 0.29	-2.11 ± 0.25
UGCGAGCAAUAUUACGAACU	-1.88 ± 0.11	0.0543 ± 0.09
UGCGAGCAAUAUUACGAAGU	-3.37 ± 0.3	-0.334 ± 0.29
UGCGAGCAAUAUUACGACCG	-1.72 ± 0.17	0.112 ± 0.21
UGCGAGCAAUAUUACGAGUC	-3.05 ± 0.21	-2.27 ± 0.2
UGCGAGCAAUAUUACGAUAA	-3.41 ± 0.23	-2.01 ± 0.18
UGCGAGCAAUAUUACGCAAA	-3.58 ± 0.28	-2.04 ± 0.17
UGCGAGCAAUAUUACGCCGG	-3.39 ± 0.34	
UGCGAGCAAUAUUACGCCGU	-3.36 ± 0.23	-2.54 ± 0.3
UGCGAGCAAUAUUACGCCUG	-3.98 ± 0.22	-0.862 ± 0.13
UGCGAGCAAUAUUACGCGCG	-2.71 ± 0.2	-2.72 ± 0.3
UGCGAGCAAUAUUACGCGCU	-3.43 ± 0.36	
UGCGAGCAAUAUUACGCGUG	-4.3 ± 0.42	-1.12 ± 0.25
UGCGAGCAAUAUUACGGAAC		-2.25 ± 0.39

Sequence	self-splicing fitness (ln) (30 °C)	self-splicing fitness (ln) (37 °C)
UGCGAGCAAUAUUACGGACG	-1.24 ± 0.15	-1.19 ± 0.17
UGCGAGCAAUAUUACGGCUC	-2.91 ± 0.31	-3.21 ± 0.41
UGCGAGCAAUAUUACGGGCA	-2.84 ± 0.21	-1.31 ± 0.18
UGCGAGCAAUAUUACGGGCG	-1.59 ± 0.061	-0.628 ± 0.086
UGCGAGCAAUAUUACGGUCG	-2.27 ± 0.25	-2.39 ± 0.27
UGCGAGCAAUAUUACGGUGC		-0.943 ± 0.2
UGCGAGCAAUAUUACGGUGG	-3.04 ± 0.23	-3.1 ± 0.33
UGCGAGCAAUAUUACGUAAA	-2.8 ± 0.1	-1.77 ± 0.18
UGCGAGCAAUAUUACGUAGG	-3.81 ± 0.18	-2.76 ± 0.21
UGCGAGCAAUAUUACGUAGU		-1.9 ± 0.19
UGCGAGCAAUAUUACGUAUA	-2.89 ± 0.25	-0.733 ± 0.22
UGCGAGCAAUAUUACGUCUU	-2.61 ± 0.16	-2.04 ± 0.16
UGCGAGCAAUAUUACGUUUA	-2.19 ± 0.16	-2.99 ± 0.14
UGCGAGCAAUAUUACGUUUC		-2.62 ± 0.36
UGCGAGCAAUAUUACGUUUG	-3.45 ± 0.21	-2.88 ± 0.21
UGCUAGCAAUAUUACGAAUU	-4.43 ± 0.41	-1.98 ± 0.17
UGCUAGCAAUAUUACGAUCU	-0.537 ± 0.11	-0.24 ± 0.1
UGCUAGCAAUAUUACGCGCG	-0.603 ± 0.092	-1.08 ± 0.12
UGCUAGCAAUAUUACGCGCU	-1.96 ± 0.12	-0.777 ± 0.13
UGCUAGCAAUAUUACGCGGC	-3.02 ± 0.38	
UGCUAGCAAUAUUACGGAGU	-4.11 ± 0.3	-2.34 ± 0.24
UGCUAGCAAUAUUACGGGUC	-2.99 ± 0.16	-2.62 ± 0.18
UGCUAGCAAUAUUACGGUAG	-1.49 ± 0.098	-0.852 ± 0.13
UGCUAGCAAUAUUACGUCUG	-0.586 ± 0.088	-0.323 ± 0.095
UGCUAGCAAUAUUACGUGAG	-3.51 ± 0.18	-1.78 ± 0.21
UGCUAGCAAUAUUACGUGGC	-3.1 ± 0.32	-2.6 ± 0.35

Sequence	self-splicing fitness (ln) (30 °C)	self-splicing fitness (ln) (37 °C)
UGCUAGCAAUAUUACGUGUU	-3.87 ± 0.16	-2.21 ± 0.12
UGCUAGCAAUAUUACGUUCG	-0.807 ± 0.065	-0.115 ± 0.091
UGCUAGCAAUAUUACGUUGU	-2.59 ± 0.17	-3.8 ± 0.34
UGGAAGCAAUAUUACGAAUU		-1.99 ± 0.36
UGGAAGCAAUAUUACGACGG	-0.691 ± 0.065	-0.14 ± 0.084
UGGAAGCAAUAUUACGAGAU	-3.92 ± 0.26	-2.47 ± 0.21
UGGAAGCAAUAUUACGAGUG	-1.38 ± 0.09	-0.586 ± 0.12
UGGAAGCAAUAUUACGAUUG	-1.76 ± 0.12	-0.362 ± 0.12
UGGAAGCAAUAUUACGAUUU	-2.48 ± 0.087	-1.7 ± 0.092
UGGAAGCAAUAUUACGCGAA	-1.68 ± 0.16	-1.03 ± 0.15
UGGAAGCAAUAUUACGCGCG	0.222 ± 0.15	0.698 ± 0.15
UGGAAGCAAUAUUACGCGGA	-1.17 ± 0.2	-1.88 ± 0.23
UGGAAGCAAUAUUACGCUAU	-2.52 ± 0.18	-2.72 ± 0.29
UGGAAGCAAUAUUACGCUUG	-3.54 ± 0.26	-2.53 ± 0.29
UGGAAGCAAUAUUACGGACA	-1.03 ± 0.13	-0.0422 ± 0.11
UGGAAGCAAUAUUACGGAUC	-2.47 ± 0.34	-1.54 ± 0.24
UGGAAGCAAUAUUACGGCUU	-2.94 ± 0.32	-1.73 ± 0.45
UGGAAGCAAUAUUACGGGCU	-3.13 ± 0.27	-1.32 ± 0.2
UGGAAGCAAUAUUACGGUUA	-1.04 ± 0.11	-0.0733 ± 0.099
UGGAAGCAAUAUUACGUCAA	-1.53 ± 0.12	-0.758 ± 0.13
UGGAAGCAAUAUUACGUCAG	-0.777 ± 0.12	-0.119 ± 0.16
UGGAAGCAAUAUUACGUCAU	-2.99 ± 0.35	-3.01 ± 0.3
UGGAAGCAAUAUUACGUGAA	-1.33 ± 0.096	-1.65 ± 0.12
UGGCAGCAAUAUUACGAAAG	-2.17 ± 0.14	-1.19 ± 0.13
UGGCAGCAAUAUUACGACCC	0.0617 ± 0.19	-0.655 ± 0.18
UGGCAGCAAUAUUACGACUU	0.0485 ± 0.093	0.468 ± 0.1
